# Measured values: patent US20240270846A1 (published 2024)
# Residue numbers refer to the chain shown, from its start. Names and notes keep the numbering of the source. Where no end group is shown, it is not given here.
# T1: biotin-labeled CD3 epsilon peptide antigen (human, also: biotin-labeled, position not given here)
# T1 construct: Peptide of CD3 epsilon; also called CD3 peptide
# T1 peptide: QDGNEEMGGITQTPY
# B1: dBBDu186/L098 (antibody, V domains shown)
# VH: QVQLVESGGGLVQPGRSLRLSCAASGFTFSNAWMHWVRQAPGKGLEWVAQIKDRSNQYATYYAPSVKGRFTISRDDSKNSIYLQMNSLKTEDTAVYYCHYVHYAQASTVLPAFGVDAWGQGTTVTVSS
# VL: DIVMTQSPLSLPVTPGEPASISCAASEELVHINRYIFLHWYQQKPGQAPRLLIYKVSNRFIGVPDRFSGSGSGTDFTLKISRVEAEDVGVYYCAQGSQVPFTFGQGTKLEIK
# notes: Purified IgG; Fab genes of the panning output converted into IgG format
# B2: dBBDu186/L100 (antibody, V domains shown)
# VH: B1 VH
# VL: B1 VL with A24S, S57Y, I61M, A94G, Q98S
# notes: as for B1
# B3: dBBDu189/L119 (antibody, V domains shown)
# VH: B1 VH with V48I, T108S, V109L, A112S
# VL: B1 VL with A24T, E27Q, Y35F
# notes: as for B1
# B4: dBBDu186/L108 (antibody, V domains shown)
# VH: B1 VH
# VL: B1 VL with A24R, A25T, V30L, Y35F, I36T, I61M, Q98A
# notes: as for B1
# B5: dBBDu167/L094 (antibody, V domains shown)
# VH: B1 VH with R54K, S55G, Q57L, T60A, Q105S, S107G, T108G, V109G, A112G
# VL: B1 VL with A24Y, V30L, Y35H, F37Y, S57Y, I61N, Q98S
# notes: Purified IgG; Fab genes of the panning output converted into IgG format; also called dBBDu_167/dBBDu.L094
# B6: dBBDu186/L106 (antibody, V domains shown)
# VH: B1 VH
# VL: B1 VL with A24S, A25T, V30L, Y35F, S57A, I61M
# notes: as for B1
# B7: dBBDu_H115/L039 (antibody, human IgG1, V domains shown)
# VH: QVQLVESGGGLVQPGRSLRLSCAASGFTFSNAWMHWVRQAPGKGLEWVAQIKDKANSYNTYYAPSVKGRFTISRDDSKNSIYLQMNSLKTEDTAVYYCRYVHYGSSYGFLFAGYGVDAWGQGTTVTVSS
# VL: DIVMTQSPLSLPVTPGEPASISCTSSQSLLHANRNTYLHWYQQKPGQAPRLLIYKVSNRFSGVPDRFSGSGSGTDFTLKISRVEAEDVGVYYCAQGTSAPFTFGQGTKLEIK
# notes: Full length IgG (human IgG1 CH1-Fc heavy chain, kappa light chain)
# B8: dBBDu_H115/L008 (antibody, V domains shown)
# VH: B7 VH
# VL: B7 VL with T24Q, Q27E, S28E, N35K, S57Q, S98A, A99T
# notes: Full length IgG (human IgG1 CH1-Fc heavy chain, kappa light chain); also called Du115/DUL008
# B9: DADU01_3#018 (antibody, human IgG1, V domains shown)
# VH: B1 VH with S55A, Q57S, A59N, T60A, A104S, Q105A, V109L, A112S
# VL: DIVMTQSPLSLPVTPGEPASISCRSSQSLVHSNRNTYLHWYQQKPGQAPRLLIYKVSNRFSGVPDRFSGSGSGTDFTLKISRVEAEDVGVYYCGQGTQVPYTFGQGTKLEIKR
# notes: also called dBBDu123
# B10: DADU01_3#001 (antibody, human IgG1, V domains shown)
# VH: QVQLVESGGGLVQPGRSLRLSCAASGFTFSIAWMHWVRQAPGKGLEWVAQIKDRVNAYEAYYAPSVKGRFTISRDDSKNSIYLQMNSLKTEDTAVYYCRYVHYASYYDLLGYGGVDAWGQGTTVTVSS
# VL: B9 VL
# notes: also called dBBDu_126; dBBDu126
# B11: DXDU01_3#094 (antibody, human IgG1, V domains shown)
# VH: B1 VH with R54K, S55G, Q57A, T60A, Q105S, S107A, T108G, V109G, A112G
# VL: B9 VL
# notes: also called dBBDu121
# B12: DXDU01_3#019 (antibody, human IgG1, V domains shown)
# VH: B10 VH with R54K, A57G, E59T, P64E, S105A, L109V
# VL: B9 VL
# notes: also called dBBDu125
# B13: DXDU01_3#051 (antibody, human IgG1, V domains shown)
# VH: B1 VH with S55G, N56Q, A59N, T60A, Q105S, T108S, A112G, F113Y
# VL: B9 VL
# notes: also called dBBDu127
# B14: L chain one-amino acid altered form of GLS3000, G to Y at Kabat position 89 (one-arm antibody: CE115HA000-pE22Hh / Kn010G3 / altered GLS3000-kappa) (antibody, human IgG1, kappa, L234A L235A, N297A, name in Kabat numbering)
# heavy: QVQLVESGGGVVQPGRSLRLSCAASGFTFSNAWMHWVRQAPGKGLEWVAQIKAKSNNYATYYAESVKGRFTISRDDSKNSLYLQMNSLKTEDTAVYYCRYVHYGAYYGVDAWGQGTTVTVSSASTKGPSVFPLAPSSKSTSGGTAALGCLVKDYFPEPVTVSWNSGALTSGVHTFPAVLQSSGLYSLSSVVTVPSSSLGTQTYICNVNHKPSNTKVDKKVEPKSCDKTHTCPPCPAPEAAGGPSVFLFPPKPKDTLMISRTPEVTCVVVDVSHEDPEVKFNWYVDGVEVHNAKTKPREEQYASTYRVVSVLTVLHQDWLNGKEYKCKVSNKALPAPIEKTISKAKGQPREPQVYTLPPSRCELTKNQVSLSCAVKGFYPSDIAVEWESNGQPENNYKTTPPVLDSDGSFFLVSKLTVDKSRWQQGNVFSCSVMHEALHNHYTQKSLSLSPDYKDDDDK
# chain: EPKSSDKTHTCPPCPAPELLGGPSVFLFPPKPKDTLMISRTPEVTCVVVDVSHEDPEVKFNWYVDGVEVHNAKTKPREEQYNSTYRVVSVLTVLHQDWLNGKEYKCKVSNKALPAPIEKTISKAKGQPREPQVCTLPPSRDELTKNQVSLWCLVKGFYPSDIAVEWESNGQPENNYKTTPPVLDSDGSFFLYSKLTVDKSRWQQGNVFSCSVMHEALHNRYTQKSLSLSP
# light: DIVMTQSPLSLPVTPGEPASISCRSSQSLVHSNRNTYLHWYQQKPGQAPRLLIYKVSNRFSGVPDRFSGSGSGTDFTLKISRVEAEDVGVYYCYQGTQVPYTFGQGTKLEIKRTVAAPSVFIFPPSDEQLKSGTASVVCLLNNFYPREAKVQWKVDNALQSGNSQESVTEQDSKDSTYSLSSTLTLSKADYEKHKVYACEVTHQGLSSPVTKSFNRGEC
# notes: One-arm antibody (IgG lacking one Fab); also called GLS3000 G89Y
# B15: L chain one-amino acid altered form of GLS3000, G to Y at Kabat position 91 (one-arm antibody: CE115HA000-pE22Hh / Kn010G3 / altered GLS3000-kappa) (antibody, human IgG1, kappa, L234A L235A, N297A, name in Kabat numbering)
# heavy: B14 heavy
# chain: B14 chain
# light: B14 light with Y94G, G96Y
# notes: One-arm antibody (IgG lacking one Fab); also called GLS3000 G91Y
# B16: L chain one-amino acid altered form of GLS3000, Q to Y at Kabat position 90 (one-arm antibody: CE115HA000-pE22Hh / Kn010G3 / altered GLS3000-kappa) (antibody, human IgG1, kappa, L234A L235A, N297A, name in Kabat numbering)
# heavy: B14 heavy
# chain: B14 chain
# light: B14 light with Y94G, Q95Y
# notes: One-arm antibody (IgG lacking one Fab); also called GLS3000 Q90Y
# B17: L chain one-amino acid altered form of GLS3000, V to Y at Kabat position 94 (one-arm antibody: CE115HA000-pE22Hh / Kn010G3 / altered GLS3000-kappa) (antibody, human IgG1, kappa, L234A L235A, N297A, name in Kabat numbering)
# heavy: B14 heavy
# chain: B14 chain
# light: B14 light with Y94G, V99Y
# notes: One-arm antibody (IgG lacking one Fab); also called GLS3000 V94Y
# B18: L chain one-amino acid altered form of GLS3000, T to Y at Kabat position 92 (one-arm antibody: CE115HA000-pE22Hh / Kn010G3 / altered GLS3000-kappa) (antibody, human IgG1, kappa, L234A L235A, N297A, name in Kabat numbering)
# heavy: B14 heavy
# chain: B14 chain
# light: B14 light with Y94G, T97Y
# notes: One-arm antibody (IgG lacking one Fab); also called GLS3000 T92Y
# B19: L chain one-amino acid altered form of GLS3000, Q to Y at Kabat position 93 (one-arm antibody: CE115HA000-pE22Hh / Kn010G3 / altered GLS3000-kappa) (antibody, human IgG1, kappa, L234A L235A, N297A, name in Kabat numbering)
# heavy: B14 heavy
# chain: B14 chain
# light: B14 light with Y94G, Q98Y
# notes: One-arm antibody (IgG lacking one Fab); also called GLS3000 Q93Y
# Target: T2, biotin-labeled human CD137 fused to human IgG1 Fc fragment (human, biotin-labeled)
# T2 construct: also called human CD137-Fc; biotin-human CD137-Fc
# Test: bead ELISA, IgG on biotin-human CD137-Fc; competitor: free CD3 epsilon 62.5 pmol
row,Binder,"ELISA signal, Free CD3e 62.5 pmol"
1,B1,15900
2,B2,88900
3,B3,20400
4,B4,50800
5,B5,4370
6,B6,3090

# Target: T3, biotin-labeled human CD137 fused to human IgG1 Fc fragment (human, biotin-labeled)
# T3 construct: also called human CD137-Fc; biotin-human CD137-Fc
# Test: bead ELISA (chemiluminescence), IgG on biotin-human CD137-Fc on streptavidin beads; control competitor free human Fc 62.5 pmol
row,Binder,ELISA signal with Free Fc 62.5 pmol
1,B7,55800
2,B8,76900

# Target: T3, biotin-labeled human CD137 fused to …
# Test: bead ELISA, IgG on biotin-human CD137-Fc; signal with free CD3e 62.5 pmol against free Fc 62.5 pmol
row,Binder,Signal decrease
1,B7,97.2%
2,B8,98.1%

# Target: T4, biotin-labeled human CD137 fused to human IgG1 Fc fragment (human CD137-Fc) (human, biotin-labeled)
# T4 construct: also called biotin-human CD137-Fc
# Test: competitive bead ELISA, biotin-human CD137-Fc on beads, 100 ng IgG, competitor free CD3 epsilon peptide 62.5 pmol
row,Binder,ELISA signal with Free CD3e 62.5 pmol
1,B9,9020
2,B10,15100
3,B11,9660
4,B12,12800
5,B13,10800

# Target: T2, biotin-labeled human CD137 fused to …
# Test: bead ELISA, IgG on biotin-human CD137-Fc; control competitor: free human IgG1 Fc 62.5 pmol
row,Binder,"ELISA signal, Free Fc 62.5 pmol"
1,B1,115000
2,B2,102000
3,B3,88100
4,B4,83600
5,B5,141000
6,B6,9860

# Target: T3, biotin-labeled human CD137 fused to …
# Test: bead ELISA (chemiluminescence), IgG on biotin-human CD137-Fc on streptavidin beads; competitor free CD3 epsilon 62.5 pmol
row,Binder,ELISA signal with Free CD3e 62.5 pmol
1,B7,1550
2,B8,1450

# Target: T4, biotin-labeled human CD137 fused to …
# Test: competitive bead ELISA, biotin-human CD137-Fc on beads; free CD3e 62.5 pmol against free Fc 62.5 pmol
row,Binder,Signal decrease
1,B9,92.3%
2,B10,81.3%
3,B11,91.1%
4,B12,92.5%
5,B13,91.6%

# Target: T1, biotin-labeled CD3 epsilon peptide …
# Test: bead ELISA, biotin-CD3 epsilon peptide on streptavidin beads, 100 ng IgG
Binder,"RLU, CD3 peptide",S/N ratio CD3 peptide/non coating
B9,182000 RLU,149
B10,198000 RLU,146
B11,165000 RLU,141
B12,191000 RLU,161
B13,169000 RLU,145

# Target: T5, CD3 epsilon homodimer protein (UniProt P07766 23-126)
# T5 construct: also called CD3 (CD3 epsilon)
# Test: SPR, Biacore T200, CD3 epsilon homodimer immobilized on CM4, one-arm antibody as analyte, 25 degrees C
row,Binder,ratio of amounts bound (Z = Y/X) against the unaltered GLS3000 antibody
1,B14,1.19
2,B15,0.17
3,B16,0.17
4,B17,0.63
5,B18,0.33
6,B19,0.87

# Target: T4, biotin-labeled human CD137 fused to …
# Test: competitive bead ELISA, biotin-human CD137-Fc on beads, 100 ng IgG, control competitor free human Fc 62.5 pmol
row,Binder,ELISA signal with Free Fc 62.5 pmol
1,B9,117000
2,B10,81000
3,B11,108000
4,B12,172000
5,B13,128000

# Target: T2, biotin-labeled human CD137 fused to …
# Test: bead ELISA, IgG on biotin-human CD137-Fc; decrease with free CD3 epsilon 62.5 pmol against free Fc 62.5 pmol
row,Binder,Signal decrease
1,B1,86.2%
2,B2,13%
3,B3,76.9%
4,B4,39.2%
5,B5,96.9%
6,B6,68.7%
